# Results reported in article PMC11480844 (2024).
# B1: H2-Kb / B15 (parent complex)
# chain 1: QQQVRQSPQSLTVWEGETAILNCSYENSAFDYFPWYQQFPGEGPALLISILSVSDKKEDGRFTIFFNKREKKLSLHIADSQPGDSATYFCAASAASNNRLTLGKGTQVVVLP
# chain 2: DSGVVQSPRHIIKEKGGRSVLTCIPISGHSNVVWYQQTLGKELKFLIQHYEKVERDKGFLPSRFSVQQFDDYHSEMNMSALELEDSAMYFCASSRRADAEQFFGPGTRLTVL
# chain 3: not shown
# chain 4: IQKTPQIQVYSRHPPENGKPNILNCYVTQFHPPHIEIQMLKNGKKIPKVEMSDMSFSKDWSFYILAHTEFTPTETDTYACRVKHDSMAEPKTVYWDRDM
# chain 5: SIINFEKL
# B2: H2-Kb / Ed9 (parent complex)
# chain 1: AQSVTQPDARVTVSEGASLQLRCKYSYFGTPYLFWYVQYPRQGLQLLLKYYPGDPVVQGVNGFEAEFSKSNSSFHLRKASVHWSDWAVYFCAVSITGGYKVVFGSGTRLLVSP
# chain 2: DSGVVQSPRHIIKEKGGRSVLTCIPISGHSNVVWYQQTLGKELKFLIQHYEKVERDKGFLPSRFSVQQFDDYHSEMNMSALELEDSAMYFCASSPRQSDYTFGSGTRLLVI
# chain 3: not shown
# chain 4: B1 chain 4
# chain 5: SIINFEKL
# Variants of: B1
# Experiment: % of reporter cells activated (NFAT-GFP), raw
# Further: test concentration or dose not given here.
row,ratio to parent,Variant
1,0.457,chain 5 K7G
2,0.159,chain 5 K7L
3,0.836,chain 5 K7W
4,0.212,chain 5 K7Q
5,0.0871,chain 5 K7F
6,0.221,chain 5 E6R
7,0.47,chain 5 E6C
8,0.132,chain 5 E6T
9,0.623,chain 5 E6K
10,0.324,chain 5 E6M
11,0.41,chain 5 E6Q
12,0.328,chain 5 E6P
13,0.0482,chain 5 E6W
14,0.793,chain 5 L8Y
15,0.805,chain 5 L8W
16,0.977,chain 5 L8T
17,0.944,chain 5 F5H
18,0.96,chain 5 F5R
19,0.599,chain 5 I3E
20,0.362,chain 5 I3G
21,0.798,chain 5 I3V
22,0.339,chain 5 I3R
23,0.00661,chain 5 N4P
24,0.382,chain 5 N4R
25,0.0905,chain 5 N4C
26,0.958,chain 5 I2A
27,0.772,chain 5 I2P
28,0.859,chain 5 I2K
29,0.759,chain 5 S1E
30,0.847,chain 5 S1A

# Variants of: B2
# Experiment: % of reporter cells activated (NFAT-GFP), raw
row,ratio to parent,Variant
1,0.781,chain 5 K7W
2,0.719,chain 5 K7L
3,0.723,chain 5 K7H
4,0.432,chain 5 K7C
5,0.47,chain 5 K7A
6,0.473,chain 5 K7G
7,0.845,chain 5 K7V
8,0.668,chain 5 K7Y
9,0.919,chain 5 K7I
10,0.969,chain 5 K7S
11,0.798,chain 5 K7Q
12,0.296,chain 5 K7F
13,0.525,chain 5 K7P
14,0.294,chain 5 K7D
15,0.982,chain 5 K7R
16,0.332,chain 5 K7N
17,0.0181,chain 5 S1M
18,0.224,chain 5 S1G
19,0.0324,chain 5 S1L
20,0.0383,chain 5 S1N
21,0.245,chain 5 S1F
22,0.802,chain 5 S1Y
23,1.17,chain 5 S1A
24,0.147,chain 5 S1C

row,ratio to parent,Variant
1,0.424,chain 5 S1K
2,0.402,chain 5 S1R
3,0.381,chain 5 S1T
4,0.543,chain 5 S1H
5,0.0209,chain 5 S1E
6,0.0362,chain 5 S1Q
7,0.126,chain 5 S1W
8,1.36,chain 5 F5L
9,0.552,chain 5 F5P
10,1.32,chain 5 F5M
11,1.31,chain 5 F5R
12,1.26,chain 5 F5C
13,1.38,chain 5 F5T
14,1.22,chain 5 F5W
15,0.945,chain 5 F5D
16,1.14,chain 5 F5I
17,1.09,chain 5 F5K
18,1.33,chain 5 F5A
19,1.33,chain 5 F5Q
20,1.05,chain 5 F5G
21,1.27,chain 5 F5V
22,1.29,chain 5 F5H
23,0.127,chain 5 N4T
24,0.0077,chain 5 N4G

row,ratio to parent,Variant
1,0.294,chain 5 N4H
2,0.0443,chain 5 N4C
3,0.364,chain 5 N4K
4,0.41,chain 5 N4I
5,0.0561,chain 5 N4W
6,0.608,chain 5 N4L
7,0.00718,chain 5 N4M
8,0.832,chain 5 N4D
9,0.572,chain 5 N4R
10,0.0572,chain 5 N4Y
11,0.958,chain 5 L8V
12,1.14,chain 5 L8M
13,1.16,chain 5 L8H
14,0.957,chain 5 L8C
15,1.13,chain 5 L8R
16,1.18,chain 5 L8Q
17,0.892,chain 5 L8E
18,0.817,chain 5 L8P
19,0.803,chain 5 L8D
20,1.08,chain 5 L8A
21,1.06,chain 5 I2G
22,1.31,chain 5 I2L
23,1.22,chain 5 I2C
24,1.11,chain 5 I2E

row,ratio to parent,Variant
1,1.32,chain 5 I2V
2,1.21,chain 5 I2A
3,0.799,chain 5 I2W
4,1.12,chain 5 I2R
5,1.18,chain 5 I2M
6,1,chain 5 I2P
7,0.905,chain 5 I2N
8,1.21,chain 5 I2D
9,1,chain 5 I2K
10,1.22,chain 5 I2T
11,0.854,chain 5 I2H
12,1.18,chain 5 I2S
13,0.858,chain 5 I2Y
14,0.597,chain 5 E6G
15,0.73,chain 5 E6H
16,0.329,chain 5 E6R
17,0.0935,chain 5 E6W
18,0.0676,chain 5 E6F
19,0.725,chain 5 E6M
20,0.449,chain 5 E6I
21,0.409,chain 5 E6V
22,0.155,chain 5 E6P
23,0.0497,chain 5 E6C
24,0.437,chain 5 E6A

row,ratio to parent,Variant
1,0.469,chain 5 E6S
2,0.0232,chain 5 E6L
3,0.795,chain 5 E6K
4,0.203,chain 5 E6N
5,0.646,chain 5 E6Q
6,0.702,chain 5 E6T
7,0.85,chain 5 E6D
8,0.914,chain 5 I3M
9,0.753,chain 5 I3W
10,0.907,chain 5 I3K
11,0.0133,chain 5 I3F
12,0.819,chain 5 I3P
13,0.56,chain 5 I3E
14,1.03,chain 5 I3L
15,1.12,chain 5 I3V
16,0.728,chain 5 I3Q
17,1.01,chain 5 I3S
18,1.17,chain 5 I3H
19,0.633,chain 5 I3C
20,0.43,chain 5 I3T
21,0.385,chain 5 I3R
22,0.446,chain 5 I3G
23,0.336,chain 5 I3N
24,0.484,chain 5 I3D
